Measurements published in patent US20230303623A1, “PEPTIDES AND METHODS OF USE” (REALTA LIFE SCIENCES, INC., priority 2020, published 2023).
Entries after “also recorded” stand apart in the source; their conditions may differ. Bridges are numbered along the chain shown (N, C = ends). Where no end group is shown, it is not given here. [ ]: non-standard residue; d: D form. S5 = C=CCCC[C@](C)(N)C(=O)O; Sar = CNCC(=O)O

What was measured:
[1] = without PEGylation; as described in U.S. Pat. No. 10,005,818; cited from earlier work
[2] = target: T1, PD-1 binding to PD-L1 (Homo sapiens, UniProt Q9NZQ7); experiment: PD-1:PD-L1 inhibitor screening ELISA; details: FIG. 8
T1 construct: purchased
Protocol: PIC1 peptides were allowed to bind to immobilized PD-L1 on the surface of the plate. Biotinylated PD-1 was then added and bound PD-1 detected by streptavidin-HRP reagent followed by TMB as the substrate for the colorimetric assay.
This inhibitor screening ELISA pair was designed to facilitate the identification and characterization of new PD-1 pathway inhibitors. In this assay, biotinylated human PD-1 was bound to immobilized human PD-L1 and a colorimetric sandwich ELISA platform was used. Plates were coated with human PD-L1 followed by incubation with various PIC1 peptides. Human PD-1-Biotin was then allowed to bind the coated human PD-L1 followed by addition of streptavidin-HRP. TMB was then added as the colorimetric HRP substrate and the wells of the plate analyzed in a plate reader at an absorbance of 450 nm.
The immune checkpoint pathway is an area of significant interest in cancer research. PD-1 is one of the best characterized checkpoint proteins. The binding between PD-1 and its ligand PD-L1 suppresses T-cell activation and allows cancer cells to escape from body's immune surveillance. Therefore, the pharmaceutical inhibition of PD-1 or its ligand has been considered a promising strategy by many cancer researchers. To ascertain if these PIC1 derivatives could inhibit PD-1 interaction with PD-L1, a commercial ELISA kit was utilized. […]

[3] = target: T2, CTLA-4 (Homo sapiens, UniProt P16410); experiment: CTLA-4 Blockade Bioassay (Promega); type: cell-based; parameters: host or cells: Jurkat T cells (CTLA-4 effector cells) co-cultured with aAPC/Raji cells; details: increasing concentrations; listed as RLS-0154
T2 sequence (P16410 36-223): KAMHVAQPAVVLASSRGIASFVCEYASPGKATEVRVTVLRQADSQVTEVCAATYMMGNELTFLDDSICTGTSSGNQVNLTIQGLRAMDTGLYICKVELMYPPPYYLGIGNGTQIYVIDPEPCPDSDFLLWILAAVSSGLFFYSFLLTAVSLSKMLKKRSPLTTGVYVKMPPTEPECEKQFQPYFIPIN
Protocol: CTLA-4 effector cells were incubated with aAPC/Raji Cells in the absence or presence of increasing concentrations of anti-CTLA-4 antibody (positive control), RLS-0122, RLS-0150, RLS-0154, RLS-0164 and RLS-0168 and RLS-0088 (negative control). Luminescence was detected in luminometer plate reader. The drop-off in signal with the test peptides at high concentrations is due to cell death as a result of peptide buffer effects on the cells.
To assess if PIC1 peptides could block CTLA-4 inhibitory activity in a cell-based assay, select peptides were screened in the CTLA-4 Blockade Bioassay (Promega). This bioluminescent cell-based assay can be used to measure the potency and stability of molecules targeting CTLA-4 and consists of two genetically engineered cell lines: CTLA-4 effector cells: Jurkat T cells expressing human CTLA-4 and a luciferase reporter driven by a native promoter which responds to TCR/CD28 activation and aAPC/Raji Cells: Raji cells expressing an engineered cell surface protein designed to activate cognate TCRs in an antigen-independent manner and endogenously expressing CTLA-4 ligands CD80 and CD86. When the two cell types are co-cultured, CTLA-4 competes with CD28 for their shared ligands, CD80 and CD86 and thus inhibits CD28 pathway activation and promoter-mediated luminescence. Addition of a molecule that blocks the interaction of CTLA-4 with its ligands CD80 and CD86 results in promoter-mediated luminescence.

[4] = target: T3, VEGF (Homo sapiens, UniProt P15692); experiment: VEGF Bioassay (Promega), VEGF signaling via VEGFR-2 (KDR); type: cell-based
T3 construct: Promega (bioassay)
T3 sequence (P15692 27-191 isoform P15692-4): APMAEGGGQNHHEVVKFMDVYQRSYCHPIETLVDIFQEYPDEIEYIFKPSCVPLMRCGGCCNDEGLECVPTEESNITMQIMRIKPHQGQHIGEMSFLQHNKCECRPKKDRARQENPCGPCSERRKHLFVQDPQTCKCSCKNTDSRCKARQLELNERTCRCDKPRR
Source text: Luminescence was detected in luminometer plate reader.
Angiogenesis, or the formation of new blood vessels from the established vasculature, is an essential element in tumor growth and metastasis formation. Inhibiting tumor angiogenesis is considered a major therapeutic strategy in oncology. […] The bioluminescent signal is detected in a luminometer.

[5] = target: T4, MPO (Homo sapiens, UniProt P05164); experiment: MPO activity assay; type: biochemical; details: compared to parent peptide
T4 construct: purchased Lee BioSolutions (Maryland Heights, MO)
Protocol: The MPO activity assay was performed as previously described. Briefly, peptides were diluted to 12 mg/ml and serially titrated in a 96 well plate at a volume of 0.02 ml. MPO was diluted to 20 μg/ml and 0.02 ml was added to the titrated peptides. TMB (3,30,5,50-tetramethylbenzidine) (0.1 ml) was added to each well for 2 minutes, followed by 0.1 ml of 2.5 N H2SO4 for another 2 minutes, and then read on a 96 well plate reader (BioTek) at 450 nm.
To ascertain the inhibition of MPO activity by the various peptides, a range of concentrations of the stapled peptides and D-amino acid variants were tested (FIG. 3A-3B) and half-maximal activity levels were calculated from the dose-response curves (FIG. 6A-6C, respectively).

[6] = test system: purified human Pan T-cells; experiment: T-cell exhaustion protocol (repeated CD3/CD28 Dynabead stimulation); type: cell-based; details: ELISA, listed as RLS-0154
Protocol: Purified human pan-T-cells were subject to stimulation with Dynabeads every 48 hours over the period of 8 days with cells also receiving PIC1 peptides (2 mg/ml) at each stimulation. Cells not receiving Dynabeads were run in parallel to assess background levels of Caspase 3/7 signal. At the eighth day, cells were harvested, and the levels of Caspase 3/7 determined by ELISA.
Purified human pan-T-cells were subject to stimulation with Dynabeads every 48 hours over the period of 8 days with cells also receiving PIC1 peptides (2 mg/ml) at each stimulation. Cell supernatants were collected at each stimulation and levels of IL-2 and IFN-gamma assayed by ELISA.
T-cell exhaustion is a form of T-cell dysfunction that occurs in cancer. It is generally defined by poor effector function, reduction in cytokine release (e.g., IL-2, TNF-alpha, IFN-gamma), sustained expression of inhibitory receptors (e.g., PD-1, LAG-3, CD244, CD160) with the progressive loss of effector function due to overstimulation. Exhaustion can prevent optimal control of tumor growth. Exhausted T cells are prevalent in the tumor microenvironment (TME) and can lead to T-cell apoptosis. T-cell exhaustion is reversible and pharmaceutical inhibition of T-cell exhaustion has been considered a promising strategy by many cancer researchers. To ascertain if PIC1 peptides could reverse T-cell exhaustion and increase T cell viability and effector function, a T-cell exhaustion protocol was developed. To induce T-cell exhaustion, purified human Pan T-cells were stimulated with T-Activator CD3/CD28 Dynabeads and cells were washed and re-stimulated every 48 hours. PIC1 peptides were added to the cells after each stimulation with Dynabeads. After three to four stimulations, cells were harvested for readouts which consisted of assessing T-cell apoptosis by measuring Caspase 3/7 levels and production of cytokines IL-2 and IFN-gamma, which are indicative of T-cell functionality. […] To further evaluate if PIC1 peptides could restore T-cell functionality in cells that have undergone the exhaustion protocol, the inventors next assessed production of cytokines IL-2 and IFN-gamma. Supernatants from the cells after each stimulation was collected and the cytokines measured by ELISA. […] The lower level of IFN-gamma signal was consistently seen in this assay.

[7] = target: T5, C1q (Homo sapiens, UniProt P02745+P02746+P02747); experiment: C1q binding ELISA-type assay; details: compared to parent peptide
T5 construct: purchased Complement Technology (Tyler, TX)
Protocol: The C1q binding assay was performed as previously described. Briefly, an Immunlon-2 HB ELISA plate was coated with 1 μg/ml C1q in bicarbonate buffer overnight at 4° C. The plates were washed with PBS-T (phosphate buffered saline+0.1% Tween) and then blocked with 1% gelatin/PBS for 2 hours at room temperature. After washing, the plates were incubated with the peptides starting at 2.5 mg/ml and then serially diluted in 1% gelatin/PBS for 1 hour at room temperature followed by washing. Plates were then probed with rabbit antibody raised against the lead peptide […] (SEQ ID NO: 2) that lacked PEGylation at 1:1000 in 1% gelatin/PBS for 1 hour at room temperature followed by a goat anti-rabbit HRP (Sigma Aldrich, St Louis, MO) at 1:1,000 in 1% gelatin/PBS for 1 hour at room temperature with a washing step in between. After addition of TMB substrate solution to the wells, the reaction was stopped using 1N H2SO4, and the plate read on a BioTek Synergy HT plate reader at 450 nm.
The astrovirus capsid protein and the PIC1 molecules derived from it inhibit classical complement pathway activation by binding to the pattern recognition molecule C1q. The inventors next tested peptide variant binding to C1q in an ELISA-type assay in which C1q is used as the capture substrate and bound peptide detected with a rabbit polyclonal antibody against the peptide portion of PA-dPEG24 ([…]-d24; SEQ ID NO: 3). Binding curves were derived for the stapled and D-amino acid peptides based on the PA-I8Sar and PA-C9Sar (FIG. 5A-5C) backbone, from which half-maximal binding concentrations were calculated (FIGS. 2A and B, respectively). […] For the peptides based on the PA-C9Sar backbone, C1q was bound to a greater degree than the parent peptide (FIG. 2B).

[8] = test system: antibody-initiated complement activation (lysis of AB human red blood cells by type O serum); experiment: ABO incompatibility hemolytic complement assay (CH50-type); type: cell-based; details: peptides 0.8 mg/ml (~0.5 mM); compared to parent peptide
Protocol: FIG. 1A-1B show PIC1 peptides' inhibition of complement activation in an ABO incompatibility assay. […] Inhibition of ABO incompatibility hemolysis in a CH50-type assay. Peptides are at a final concentration of 0.5 mM. Values are represented as a percent of the positive control, which consists of human 0 sera and AB red blood cells in GVBS^++ buffer. Data are the means of n=3 independent experiments±SEM.
For hemolytic complement assays, human red blood cells (RBCs) from type AB donors were purified, washed, and standardized to 1.0×10^9 cells/ml, as previously described. Human sera from type 0 donors at a 15% final concentration was combined with 0.5 mM of the peptides and the volume was brought up to 0.2 ml with GVBS^++ and 5.0×10^7 RBCs. The samples were incubated for 1 hour at 37° C. and then spun at 3,000 rpm for 5 minutes and the supernatant was collected and read at 412 nm. Values are represented as a percent of the positive control, which consists of human 0 sera and AB red blood cells in GVBS^++ buffer.
To assess the extent to which the peptide variants inhibit antibody-initiated complement activation, an ABO incompatibility ex vivo assay was utilized in which purified erythrocytes from a ‘type AB+’ donor are incubated with sera from a ‘type 0’ subject containing anti-A and anti-B antibodies. Peptides were tested at a concentration of 0.8 mg/ml (˜0.5 mM).

[9] = Total Antioxidant Capacity (TAC) assay; details: highest peptide concentration 1.5 mM; compared to parent peptide
Protocol: As previously reported, the TAC (Total Antioxidant Capacity) Assay (Cell Biolabs, Inc, San Diego, CA) was used to measure the antioxidant capacity of the PIC1 variants based on the reduction of copper (II) to copper (I). The kit protocol was performed per the manufacturer's recommendations.
The antioxidant properties for the PIC1 variants were evaluated in a Total Antioxidant Capacity (TAC) assay, as previously reported. Total antioxidant activity over a range of peptide concentrations were determined for the stapled and the D-amino acid peptides based on the PA-I8Sar and PA-C9Sar backbones (FIG. 4A-4B), with the activity of the highest peptide concentration reported (1.5 mM) (FIG. 5A-5C).

[10] = peptides 2 mg/ml, stimulation 2

T5 sequence (P02745 23-245): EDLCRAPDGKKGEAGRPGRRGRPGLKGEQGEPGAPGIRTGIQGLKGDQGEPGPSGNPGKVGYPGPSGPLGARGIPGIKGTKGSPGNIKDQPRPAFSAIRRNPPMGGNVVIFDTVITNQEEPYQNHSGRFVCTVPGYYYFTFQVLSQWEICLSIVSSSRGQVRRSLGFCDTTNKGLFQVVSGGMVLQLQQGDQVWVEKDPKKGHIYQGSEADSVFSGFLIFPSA
T5 sequence (P02746 28-253): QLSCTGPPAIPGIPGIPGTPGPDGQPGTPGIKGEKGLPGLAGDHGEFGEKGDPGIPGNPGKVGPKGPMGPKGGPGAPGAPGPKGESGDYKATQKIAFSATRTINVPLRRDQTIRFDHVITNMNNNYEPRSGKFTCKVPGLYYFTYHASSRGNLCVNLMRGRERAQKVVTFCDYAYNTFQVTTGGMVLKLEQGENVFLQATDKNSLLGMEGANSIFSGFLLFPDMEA
T5 sequence (P02747 29-245): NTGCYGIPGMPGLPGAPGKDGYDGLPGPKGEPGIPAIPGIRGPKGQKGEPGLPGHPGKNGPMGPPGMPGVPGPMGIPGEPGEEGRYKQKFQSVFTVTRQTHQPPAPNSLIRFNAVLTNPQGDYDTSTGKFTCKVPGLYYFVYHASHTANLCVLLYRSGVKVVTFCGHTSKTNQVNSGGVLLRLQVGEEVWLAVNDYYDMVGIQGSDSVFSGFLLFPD
T4 sequence (P05164 279-745 limits assumed): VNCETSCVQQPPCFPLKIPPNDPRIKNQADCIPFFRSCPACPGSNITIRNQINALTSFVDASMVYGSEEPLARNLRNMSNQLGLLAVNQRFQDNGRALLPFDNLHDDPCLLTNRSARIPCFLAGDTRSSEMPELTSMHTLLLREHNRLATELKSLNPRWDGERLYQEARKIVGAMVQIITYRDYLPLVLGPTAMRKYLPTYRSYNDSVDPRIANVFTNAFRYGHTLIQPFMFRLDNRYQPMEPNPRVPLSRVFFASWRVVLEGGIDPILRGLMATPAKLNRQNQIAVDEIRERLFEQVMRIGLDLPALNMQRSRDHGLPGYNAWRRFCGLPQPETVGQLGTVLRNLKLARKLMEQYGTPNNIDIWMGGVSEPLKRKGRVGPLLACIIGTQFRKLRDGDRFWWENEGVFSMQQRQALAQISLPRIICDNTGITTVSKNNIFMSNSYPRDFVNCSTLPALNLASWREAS
T4 sequence (P05164 165-273 limits assumed): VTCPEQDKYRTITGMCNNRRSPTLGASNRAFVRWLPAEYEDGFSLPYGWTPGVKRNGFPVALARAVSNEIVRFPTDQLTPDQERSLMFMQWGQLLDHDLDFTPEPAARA
T1 sequence (Q9NZQ7 19-238 limits assumed): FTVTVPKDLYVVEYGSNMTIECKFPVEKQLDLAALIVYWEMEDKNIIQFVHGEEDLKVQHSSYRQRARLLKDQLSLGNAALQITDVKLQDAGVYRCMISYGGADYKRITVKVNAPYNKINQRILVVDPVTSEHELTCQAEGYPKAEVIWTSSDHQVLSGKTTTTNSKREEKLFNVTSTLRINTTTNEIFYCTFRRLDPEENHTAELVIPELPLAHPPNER

**Q.** Which solubility in water [1] does the source give for “IALILEPI(Sar)CQERAA (IALILEPIXCQERAA; sarcosine at position 9; MOD_RES (9)..(9) Sarcosine) [PA-0089, parent peptide, sarcosine at position 9 of PIC1]” here?
**A.** water soluble without PEGylation

**Q.** Which “inhibition of binding of PD-1 to PD-L1, in words” value [2] does the source give for “IALILEPICCQERAA-PEG24 (C-terminal PEG24) [PA-0071, PIC1 peptide with C-terminal monodisperse 24-mer PEGylated moiety]” here?
**A.** did not inhibit

**Q.** For “IALILES5I(Sar)CS5ERAA (IALILE[S5]I[Sar]C[S5]ERAA; staple 7-11; not fully specified; printed as IALILES5I(Sar)CS5ERAA) [PA-0154]”, which “inhibition of CTLA-4 mediated cell signaling (increase in luminescence), in words” value [3] is on record?
**A.** showed inhibitory activity; also recorded: able to inhibit CTLA-4 mediated cell signaling

**Q.** What about the “inhibition of VEGF signaling via VEGFR-2 (luminescence), in words” value [4] of the same substance?
**A.** dose-dependently reduced luminescence

**Q.** And the “inhibition of MPO activity (half-maximal values), in words” value [5]?
**A.** decreased MPO inhibition

**Q.** And the “Caspase 3/7 levels, in words” value ([6]; peptides 2 mg/ml at each stimulation, day 8)?
**A.** increase in Caspase 3/7 levels; also recorded: did not display reduction of Caspase levels

**Q.** And the “IFN-gamma levels in cell supernatants, in words” value [6, 10]?
**A.** not and increased levels

**Q.** And the “IL-2 levels in cell supernatants, in words” value [6, 10]?
**A.** detectable IL-2 at stimulation 2; also recorded: increased levels

**Q.** Which results are given for “IAdLILEP(Sar)CS5QERS5A (H-IA[dL]ILEP[Sar]C[S5]QER[S5]A-OH; staple 10-14; not fully specified) [PA-0142]”?
**A.** binding to C1q (binding curves, half-maximal binding), in words [7]: did not bind C1q; inhibition of ABO incompatible hemolysis (complement inhibition), in words [8]: similar; total antioxidant capacity, in words [9]: decreased activity compared to the parent peptide

**Q.** For “IS5LILS5PI(Sar)CQERAA (I[S5]LIL[S5]PI[Sar]CQERAA; staple 2-6; not fully specified; printed as IS5LILS5PI(Sar)CQERAA) [PA-0152]”, which “inhibition of MPO activity (half-maximal values), in words” value [5] is on record?
**A.** decreased MPO inhibition

**Q.** What about the “binding to C1q (binding curves, half-maximal binding), in words” value [7] of the same substance?
**A.** did not titrate
